The results in this text go back to patent publication US20150056134A1 (MABVAX THERAPEUTICS, published 2015).

Positions count from the first letter of the chain named.

To fix the notation:
B1: 9H3 human anti-sLe^a monoclonal antibody (antibody, IgG1, V domains shown)
VH: EVQLLESGGGLVQPGRSLRLSCAASGFTFDDYVMHWVRQAPGKGLEWVSSISWNSGSIGYADSVKGRFIISRDNAKNSLYLQMNSLRAEDTALYYCAKDRRIRGDSGFEGDYWGQGTLVTVSS
VL: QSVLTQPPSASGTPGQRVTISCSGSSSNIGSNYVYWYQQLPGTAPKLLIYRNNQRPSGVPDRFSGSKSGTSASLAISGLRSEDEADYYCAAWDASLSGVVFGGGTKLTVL
notes: Human IgG/lambda (IgG1), tested as hybridoma supernatant; also called EF41-9H3; EF41-9H3 (G)
B2: 7E3 human anti-sLe^a monoclonal antibody (antibody, V domains shown)
VH: QVQLLESGGGVVQPGRSLRLSCAASGFTFSFYGMHWVRQAPGKGLEWVAAISYDGSNKYYADSVKGRFTISRDNSKNTLYLQMNSLRAEDTAVYYCAKRPNQFYCSDGRCYSIDYWGQGTLVTVSS
VL: not shown
notes: Human IgM/kappa, tested as hybridoma supernatant; also called EF41-7E3; EF41-7E3 (M)
B3: 5B1 human anti-sLe^a monoclonal antibody (antibody, V domains shown)
VH: QVQLVESGGGSVQPGRSLRLSCEASGFTFEAYAMHWVRQPPGKGLEWVSSINWNSGRIAYADSVKGRFTISRDNARNSLYLQMNSLRLEDTAFYYCAKDIRRFSTGGAEFEYWGQGTLVTVSS
VL: QSVLTQPPSASGTPGQRVTISCSGSSSNIGSNFVYWYQQLPGTAPKLLIYRNNQRPSGVPDRFSGSRSGTSASLAISGLRSEDEADYYCAAWDDSLGGHYVFGTGTKVTVL
notes: Human IgG1/lambda; The ADCC assay used recombinant r5B1 made in CHO cells from a full-length IgG1 vector; also called EF41-5B1; EF41-5B1(G)
B4: 5H11 human anti-sLe^a monoclonal antibody (antibody, IgG1, V domains shown)
VH: QVQLLESGGGLVQPGRSLRLSCAASGFTFDEYAMHWVRQAPGKGLEWVSSVSWNSGSIGYADSVKGRFTISRDNAKNSLYLQMNSLRAEDTALYYCAKDIRTYSTGGAEFASWGQGTLVTASS
VL: B3 VL with F33Y, L40V, R67K, G97S
notes: Human IgG/lambda (IgG1), tested as hybridoma supernatant; also called EF41-5H11; EF41-5H11(G)

In the experiment the target is T1, Neutral Avidin (UniProt P02701 25-152).
T1 construct: Control coating without captured biotinylated sLe^a; also called NAV; Neutr-Avidin
T1 sequence (P02701 25-152 limits assumed): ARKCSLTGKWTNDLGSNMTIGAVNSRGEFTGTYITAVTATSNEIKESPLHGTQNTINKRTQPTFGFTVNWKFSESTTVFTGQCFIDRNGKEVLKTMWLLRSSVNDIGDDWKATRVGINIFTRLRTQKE
Put plainly: ELISA, hybridoma supernatant on NeutrAvidin-coated control wells without sLe^a. In general terms: In an ELISA, binding on a coated surface is turned into a signal by an enzyme label.
As for B1, the “OD (490 nm)” value is 0.05 OD (490 nm).

In the case of B2, the “OD (490 nm)” value was 0.05 OD (490 nm). For the molecule B3, the “OD (490 nm)” value was 0.05 OD (490 nm).

For the molecule B4, the “OD (490 nm)” value was 0.05 OD (490 nm).
